The text below walks through data of doi:10.1101/706143.

Assay [1] deals with Cas7 (V. cholerae Type I-F variant CRISPR-Cas system) (V. cholerae). Put plainly: cryo-EM structure.
The target of assay [2] is TniQ (transposition protein of the Vibrio cholerae Tn6677 transposon) (V. cholerae). Description: cryo-EM structure.

With “Cas7 (V. cholerae Type I-F variant CRISPR-Cas system) (natural protein)”, in assay [1], the stoichiometry N came to 6. In turn, “TniQ (transposition protein of the Vibrio cholerae Tn6677 transposon) (natural protein)” showed a stoichiometry N in assay [2] of 2.
